Changes are numbered by the printed parent chain.
B1: T79 vrt6 (ssRNA)
RNA: ACGAACUGCCCUCGAUCGACGCACAGACGUUUUUU
modifications: mAmCmGmAmAmCmUmGfCfCfCmUmCmGmAmUmCmGmAfCfGfCmAmCmAmGmAmCmGfUmUmUmUmUmU-idT
B2: T34 (ssRNA)
RNA: ACGAACUGCCCUCGCUACUUUCAUGUUGCGACGCACAGACGU
modifications: 2'-F C and U; 2'-OH A and G; 3' idT
B3: T59 vrt5 (ssRNA)
RNA: ACGAACUGCCCUCGAUCGACGCACAGACGU
modifications: mAmCmGmAmAmCfUmGfCfCfCmUmCmGmAmUmCmGmAfCmGfCmAmCmAmGmAmCmGfU-idT
B4: T83 (ssRNA)
RNA: ACGAACUGCCCUCGAUCGACGCACAGACGUAAAAA
modifications: 2'-F C and U; 2'-OH A and G; 3' idT
B5: T50 (ssRNA)
RNA: ACGAACUGCCCUCGCACUUAUGUGCGACGCACAGACGU
modifications: 2'-F C and U; 2'-OH A and G; 3' idT
B6: T59 vrt23 (ssRNA)
RNA: B3 RNA
modifications: 2'-F U7,C9,C10,C11,U12,C20,C22,U30; ribo G21; rest 2'-OMe; 3' idT
B7: T83 vrt4 (ssRNA)
RNA: B4 RNA
modifications: 2'-F C9,C10,C11,C20,C22; ribo G21; rest 2'-OMe; 3' idT
B8: T84 vrt4 (ssRNA)
RNA: B4 RNA with A32C, A34C, A35G
modifications: 2'-F C9,C10,C11,C20,C22; ribo G21; rest 2'-OMe; 3' idT
B9: T71 (ssRNA)
RNA: ACGAACUGCCCUCGUUAUCGACGCACAGACGU
modifications: 2'-F C and U; 2'-OH A and G; 3' idT
B10: T90 (ssRNA)
RNA: ACGAACUGCCCUCUAUUAUUUGACGCACAGACGU
modifications: 2'-F C and U; 2'-OH A and G; 3' idT
B11: T80 (ssRNA)
RNA: ACGAACUGCCCUCGAUCGACGCACAGACGUAAA
modifications: 2'-F C and U; 2'-OH A and G; 3' idT
B12: T86 vrt6 (ssRNA)
RNA: ACGAACUGCCCUCGUUUCAUCGACGCACAGACGU
modifications: 2'-F C9,C10,C11,C24,G25,C26,U34; rest 2'-OMe; 3' idT
B13: T59 vrt21 (ssRNA)
RNA: B3 RNA
modifications: 2'-F U7,C9,C10,C11,U12,C20,C22,U30; ribo A23; rest 2'-OMe; 3' idT
B14: T87 vrt1 (ssRNA)
RNA: B9 RNA with G14U, A17C, U18A, C19U
modifications: 2'-F C2,U7,C9,C10,C11,U12,C22,C24,C30,U32; ribo A1,G3,G8,A21,G23,A25,G31; rest 2'-OMe; 3' idT
B15: T90 vrt4 (ssRNA)
RNA: B10 RNA
modifications: 2'-F C9,C10,C11,C24,C26; ribo G25; rest 2'-OMe; 3' idT
B16: T89 vrt4 (ssRNA)
RNA: ACGAACUGCCCUCGUAUUAUUUCGACGCACAGACGU
modifications: 2'-F C9,C10,C11,C26,C28; ribo G27; rest 2'-OMe; 3' idT
B17: T59 vrt12 (ssRNA)
RNA: B3 RNA
modifications: rAfCrGmAmAmCfUrGfCfCfCfUmCmGmAmUmCmGrAfCrGfCmAmCmAmGmAfCrGfU-idT
B18: DTRI-022 (ssRNA)
RNA: ACGAAAUGGAAUCGUAAGAACCACAGACGUUUUUU
modifications: all 2'-OMe; 3' idT
B19: T14 (ssRNA)
RNA: GGGAGGUCAGCUACUUUCAUGUUGCUGA
modifications: 2'-F C and U; 2'-OH A and G
B20: T67 (ssRNA)
RNA: ACGAACUGCCCUCGAUUAUUCGACCACAGACGU
modifications: 2'-F C and U; 2'-OH A and G; 3' idT
B21: T62 (ssRNA)
RNA: ACGAACUCCCUCGAUUAUUCGACGACAGACGU
modifications: 2'-F C and U; 2'-OH A and G; 3' idT
B22: T56 (ssRNA)
RNA: ACGAACUGCCCUACGCACAGACGU
modifications: 2'-F C and U; 2'-OH A and G; 3' idT
B23: T58 (ssRNA)
RNA: ACGAACUGCCCUCGCGACGCACAGACGU
modifications: 2'-F C and U; 2'-OH A and G; 3' idT
B24: T66 (ssRNA)
RNA: ACGAACUGCUCGAUUAUUCGAGCACAGACGU
modifications: 2'-F C and U; 2'-OH A and G; 3' idT
B25: T53 (ssRNA)
RNA: ACGAACUGCCCUCAGCUACUUUCAUGUUGCUGACGCACAACGU
modifications: 2'-F C and U; 2'-OH A and G; 3' idT
B26: T54 (ssRNA)
RNA: B25 RNA with A39G
modifications: 2'-F C and U; 2'-OH A and G; 3' idT
B27: T55 (ssRNA)
RNA: ACGACUGCCCUCAGCUACUUUCAUGUUGCUGACGCACACGU
modifications: 2'-F C and U; 2'-OH A and G; 3' idT
B28: T13 (ssRNA)
RNA: GGGAGGUGCCCUCAGCUACUUUCAUGUUGCUGACGCACAGACGACUCGCUG
modifications: 2'-F C and U; 2'-OH A and G
B29: T20 (ssRNA)
RNA: GGGAGGUGGACGAACUGCCCUCUACUUUCAUGUUGACGCACAGACGACUCGCUG
modifications: 2'-F C and U; 2'-OH A and G
B30: T65 (ssRNA)
RNA: ACGAACUGCCCUUUAUACGCACAGACGU
modifications: 2'-F C and U; 2'-OH A and G; 3' idT
B31: T19 (ssRNA)
RNA: GGGAGGUGGACGAACUGCCCUCUUUCAUGUUGCUGACGCACAGACGACUCGCUG
modifications: 2'-F C and U; 2'-OH A and G
B32: T61 (ssRNA)
RNA: ACGAACUGCCCCGCACAGACGU
modifications: 2'-F C and U; 2'-OH A and G; 3' idT
B33: T17 (ssRNA)
RNA: GGGAGGUGGACGAACUGCCCUACGCACAGACGACUCGCUG
modifications: 2'-F C and U; 2'-OH A and G
B34: T25 vrt16 (ssRNA)
RNA: ACGAACUGCCCUCAGCUACUUUCAUGUUGCUGACGCACAGACGU
modifications: rAfCmGrArAfCfUrGfCfCfCfUfCrArGfCfUrAfCfUfUfUfCrAfUrGfUfUrGfCfUrGrAfCrGfCrAfCrArGrAmCrGfU-idT
B35: T59 (ssRNA)
RNA: B3 RNA
modifications: 2'-F C and U; 2'-OH A and G; 3' idT
B36: T96 (ssRNA)
RNA: ACGAACUGCCCUCUUUUUUUUGACGCACCCCCGU
modifications: 2'-F C and U; 2'-OH A and G; 3' idT
B37: T97 (ssRNA)
RNA: B12 RNA with A29C, G30C, A31C
modifications: 2'-F C and U; 2'-OH A and G; 3' idT
B38: T99 (ssRNA)
RNA: B36 RNA with U15A, U18A
modifications: 2'-F C and U; 2'-OH A and G; 3' idT
B39: T98 (ssRNA)
RNA: ACGAACUGCCCUCUUUCAUGACGCACCCCCGU
modifications: 2'-F C and U; 2'-OH A and G; 3' idT
B40: T101 (ssRNA)
RNA: B39 RNA with C17U, A18U
modifications: 2'-F C and U; 2'-OH A and G; 3' idT
B41: T59 vrt29 (ssRNA)
RNA: B3 RNA
modifications: 2'-F C10,C11,C20,C22,U30; ribo G21; rest 2'-OMe; 3' idT
B42: T93 vrt7 (ssRNA)
RNA: ACGAACUGCCCUCUAUUUCAUUUGACGCACAGACGU
modifications: 2'-F C9,C10,C11,C26,G27,C28; rest 2'-OMe; 3' idT
B43: T82 vrt1 (ssRNA)
RNA: B4 RNA with A32C, A33C, A34C, A35G
modifications: 2'-F C2,U7,C9,C10,C11,U12,C20,C22,C28,U30; ribo A1,G3,G8,A19,G21,A23,G29; rest 2'-OMe; 3' idT
B44: T59 vrt1 (ssRNA)
RNA: B3 RNA
modifications: rAfCrGmAmAmCfUrGfCfCfCfUmCmGmAmUmCmGrAfCrGfCrAmCmAmGmAfCrGfU-idT
B45: T59 vrt13 (ssRNA)
RNA: B3 RNA
modifications: rAfCrGmAmAmCfUrGfCfCfCfUmCmGmAmUmCmGrAfCmGfCrAmCmAmGmAfCrGfU-idT
B46: T93 (ssRNA)
RNA: B42 RNA
modifications: 2'-F C and U; 2'-OH A and G; 3' idT
B47: T82 (ssRNA)
RNA: B4 RNA with A32C, A33C, A34C, A35G
modifications: 2'-F C and U; 2'-OH A and G; 3' idT
B48: T84 (ssRNA)
RNA: B4 RNA with A32C, A34C, A35G
modifications: 2'-F C and U; 2'-OH A and G; 3' idT

Target: T1, von Willebrand factor (VWF) (Homo sapiens, UniProt P04275 P04275:764-2813)
Assay: filter; Bmax 61%; 2 mM CaCl2, 37 C
Details: tags: factor VIII free, Haematologic Technologies Inc; label: 5'-32P
Description: (§1) Affinity constants (Kd values) were determined using double-filter nitrocellulose filter binding assays (Rusconi et al, Thromb. Haemost. $4:841-848 (2000)). All binding studies were performed in binding buffer F (20 mM HEPES, pH 7.4, 150 mM NaCl, 2 mM CaCl₂, and 0.01% BSA) at 37° C. Human purified VWF (factor VIII free) was purchased from Haematologic Technologies Inc. (Essex Junction, Vt.) and used in the double-filter nitrocellulose filter binding assay to determine the Kd of the aptamers. Briefly, RNA were end-labeled at the 5′ end with T4 polynucleotide kinase (New England Biolabs, Beverly, Mass.) and [γ³²P] ATP (Amersham Pharmacia Biotech, Piscataway, N.J.) (Fitzwater and Polisky, Methods Enzymol. 267:275-301 (1996)). End-labeled RNA was diluted in binding buffer F, heat denatured at 65° C. for 5 minutes, and subsequently equilibrated at 37° C. Direct binding was performed by incubating trace ³²P-RNA with varying concentrations of VWF protein in binding buffer F at 37° C. for 5 min. The fraction of the nucleic acid-protein complex which bound to the nitrocellulose membrane was quantified with a phosphorimager (Molecular Dynamics, Sunnyvale, Calif.). Non-specific binding of the radiolabeled nucleic acid was subtracted out of the binding such that only specific binding remained (Wong and Lohman, Proc. Natl. Acad. Sci. USA 90:5428-5432 (1993)).

| Binder | Kd [nM] |
| --- | --- |
| B1 | 60.5 |
| B2 | 10 |
| B3 | 260 |
| B4 | 3.5 |
| B5 | 9.6 |

Target: T1, von Willebrand factor (VWF)
Assay: filter; Bmax 77%; 2 mM CaCl2, 37 C
Details: tags: factor VIII free human purified VWF, Haematologic Technologies Inc; label: 5'-32P
Description: as §1

| Binder | Kd [nM] |
| --- | --- |
| B6 | 1.7 |
| B7 | 20 |
| B8 | 22 |

Same assay, conditions: tags: factor VIII free, Haematologic Technologies Inc; label: 5'-32P

| Binder | Kd [nM] |
| --- | --- |
| B9 | 10 |
| B10 | 3.8 |
| B11 | 6.3 |

Target: T1, von Willebrand factor (VWF)
Assay: filter; Bmax 85%; 2 mM CaCl2, 37 C
Details: tags: factor VIII free human purified VWF, Haematologic Technologies Inc; label: 5'-32P
Description: as §1

| Binder | Kd [nM] |
| --- | --- |
| B12 | 52 |
| B13 | 27 |
| B14 | 1.5 |
| B15 | 10.2 |
| B16 | 8.4 |

Same assay, conditions: tags: factor VIII free, Haematologic Technologies Inc; label: 5'-32P

| Binder | Kd [nM] |
| --- | --- |
| B17 | 6.9 |

Target: T1, von Willebrand factor (VWF)
Assay: filter; NB; 2 mM CaCl2, 37 C
Details: tags: factor VIII free human purified VWF, Haematologic Technologies Inc; label: 5'-32P
Description: as §1

| Binder | binding result |
| --- | --- |
| B18 | no binding |

Same assay, conditions: tags: factor VIII free, Haematologic Technologies Inc; label: 5'-32P

| Binder | binding result |
| --- | --- |
| B19 | no binding |
| B20 | no binding |
| B21 | no binding |
| B22 | no binding |
| B23 | no binding |
| B24 | no binding |
| B25 | no binding |
| B26 | no binding |
| B27 | no binding |
| B28 | no binding |
| B29 | no binding |
| B30 | no binding |
| B31 | no binding |
| B32 | no binding |
| B33 | no binding |

Target: T1, von Willebrand factor (VWF)
Assay: filter; Bmax 78%; 2 mM CaCl2, 37 C
Details: tags: factor VIII free, Haematologic Technologies Inc; label: 5'-32P
Description: as §1

| Binder | Kd [nM] |
| --- | --- |
| B34 | 4.3 |
| B35 | 8.8 |

Target: T1, von Willebrand factor (VWF)
Assay: filter; NB; loop CAGA mutated; 2 mM CaCl2, 37 C
Details: tags: factor VIII free, Haematologic Technologies Inc; label: 5'-32P
Description: as §1

| Binder | binding result |
| --- | --- |
| B36 | no binding |
| B37 | no binding |
| B38 | no binding |
| B39 | no binding |
| B40 | no binding |

Target: T1, von Willebrand factor (VWF)
Assay: filter; Bmax 76%; 2 mM CaCl2, 37 C
Details: tags: factor VIII free human purified VWF, Haematologic Technologies Inc; label: 5'-32P
Description: as §1

| Binder | Kd [nM] |
| --- | --- |
| B41 | 19 |
| B42 | 20 |
| B43 | 3.8 |

Same assay, conditions: tags: factor VIII free, Haematologic Technologies Inc; label: 5'-32P

| Binder | Kd [nM] |
| --- | --- |
| B44 | 1.5 |
| B45 | 29 |
| B46 | 6.4 |
| B47 | 5.3 |
| B48 | 3.7 |
